Where two headings read alike, the source gives them in different places.
Tests used:
TNF-alpha = TNF-alpha (UniProt P01375); assay: BLI; details: SEQ 37 part DNA primer, selected region TNA 3'-2', 24 C, 2 mM CaCl2
[1] = biological target: SARS-CoV-2 spike glycoprotein subunit 1 (S1) (SARS-CoV-2) (UniProt P0DTC2); assay: BLI
[2] = all T = C5-benzyl carboxamide U (UPhe)
[3] = SEQ 37 part DNA primer, selected region TNA 3'-2', all T = C5-indole carboxamide U (UTrp)
[4] = SEQ 37 part DNA primer, selected region TNA 3'-2', all T = C5-benzyl carboxamide U (UPhe)
[5] = all T = C5-indole carboxamide U (UTrp)

Chain of TNF-alpha (P01375 77-233): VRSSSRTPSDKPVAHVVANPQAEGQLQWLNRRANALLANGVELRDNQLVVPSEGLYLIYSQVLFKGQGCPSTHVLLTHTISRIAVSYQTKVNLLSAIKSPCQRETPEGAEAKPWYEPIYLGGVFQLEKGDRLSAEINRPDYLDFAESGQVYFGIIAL

GTCCCCTTGGGGATACCACCACTTTTGCTTGAGATTCGGCGCATTTCGTGCAGTGATGTA [TNF Phe entry 5]
Kd (TNF-alpha; [2]): 0.027 µM

GTCCCCTTGGGGATACCACCTTAGTATTATTATGGGTGCGTGAGTTTCCAAGAAGCGCGT [TNA 949]
Kd ([1]; SEQ 37 part DNA primer, selected region TNA 3'-2', threomer base modification (side chain not stated, probably UTrp)): 0.0007 µM

GTCCCCTTGGGGATACCACCCGTACAACTCCGGTTTCGGGCGGCCCGTTCTTCAGTTTGA [S1 Trp entry 18]
Kd [1, 3]: 0.0027 µM

GTCCCCTTGGGGATACCACCATTGTGCGAAGTATACATAGCAGATGCGTGACATAACAAG [S1 Trp entry 20]
Kd [1, 3]: 0.0051 µM

GTCCCCTTGGGGATACCACCTTAATTTTGAGATCTTTGTCGAGTTGCTCGGTGAAAAGTC [TNF Phe entry 8]
Kd (TNF-alpha; [2]): 0.07 µM

GTCCCCTTGGGGATACCACCGCGGCCAGATCCCCGATATGTTAACGTCCTTTTATGCGGG [TNA 913]
Kd ([1]; SEQ 37 part DNA primer, selected region TNA 3'-2', all T = C5-indole carboxamide U (UTrp; from doped Trp-1 library)): 0.00085 µM

GTCCCCTTGGGGATACCACCGAATGCGCTTGAGCGCGCCCGATGATATAGCGAACCAAGC [TNF Phe entry 7]
Kd (TNF-alpha; [2]): 0.054 µM

GTCCCCTTGGGGATACCACCGACGCTATGACTGGTATGGTGTGTGAGCTTCGAGGTCTGA [TNF Standard-2]
Kd (TNF-alpha; natural bases, three replicates 109, 76, 62 nM, approximate, poor curve fit): 0.082 µM

GTCCCCTTGGGGATACCACCGCGGGGGGTGTTGTGTAACTGTTTTTTGCCGGAAAGACGC [TNF standard entry 1]
Kd (TNF-alpha; natural bases, R2 0.88): 0.042 µM

GTCCCCTTGGGGATACCACCTGGCGAGGGGTAGTGAGCTGACGGATAGGGCTAGTGGAAC [S1 standard entry 1]
Kd ([1]; SEQ 37 part DNA primer, selected region alpha-L-threofuranosyl (TNA) 3'-2', natural bases): 0.0176 µM

GTCCCCTTGGGGATACCACCAAACTGTTGGGACTTGTAATGTCGTCATCAGCTAAGAGTC [S1 Trp entry 22]
Kd [1, 3]: 0.0211 µM

GTCCCCTTGGGGATACCACCTGTACGCCATATAGGCAGTCATCGAGCAACGAAGTAATGG [S1 Phe entry 9]
Kd [1, 4]: 0.0167 µM

GTCCCCTTGGGGATACCACCAGGCTTATGAAATCTTATGTGAACCGGGCATACGGGCGAT [S1 Phe entry 4]
Kd [1, 4]: 0.0052 µM

GTCCCCTTGGGGATACCACCAGAACTTCGTCAGCGTCTTACCGAGTCCAAGGACTGGCTA [S1 Phe entry 12]
Kd [1, 4]: 0.0288 µM

GTCCCCTTGGGGATACCACCACGAGTAGGCCGCATTATGATGATTTAAACTGTTTCATGC [TNF Trp-3]
Kd (TNF-alpha; all T = C5-indole carboxamide U (UTrp), three replicates 16, 17, 27 nM): 0.02 µM

GTCCCCTTGGGGATACCACCTGACACCTGGCACGAATGCGCAGACGACGTTGTTTTGCGT [TNF Phe entry 4]
Kd (TNF-alpha; [2]): 0.019 µM

GTCCCCTTGGGGATACCACCTTTCTATGCATCTCGGGGATGCGGGATATAAAAGAGAGAC [S1 Trp entry 23]
Kd [1, 3]: 0.0291 µM

GTCCCCTTGGGGATACCACCTAAGGAAAGGGGAGCGGGTAGGAGGTTCGTCGGGTGCGAC [S1 Trp entry 19]
Kd [1, 3]: 0.0042 µM

GTCCCCTTGGGGATACCACCGGTGTAATAAGGAGAGTACGTCGTTTGGTGGGACCGGGTA [S1 Phe entry 15]
Kd [1, 4]: 0.039 µM

GTCCCCTTGGGGATACCACCGGCACTATCGATTATCGTGCGCATTGGTTGTGTCCAGGCT [TNF Trp entry 10]
Kd (TNF-alpha; [5]): 0.0073 µM

GTCCCCTTGGGGATACCACCATCGAGTTGTGACGTTAACGATAATAGCCCGCTCCGATTC [S1 Phe entry 13]
Kd [1, 4]: 0.031 µM

GTCCCCTTGGGGATACCACCTACATTACGCGTTAGCGTTAATGGGTATGTCCGGACAGTG [S1 Phe entry 14]
Kd [1, 4]: 0.036 µM

GTCCCCTTGGGGATACCACCTCACGTCTGTTGTACACTTGTGCAATGCAAGGACGGAAAA [TNF Trp entry 11]
Kd (TNF-alpha; [5]): 0.012 µM

GTCCCCTTGGGGATACCACCTATTGGAACTCCCGAGCAGGCTGTCCCATGGAAGACTACA [S1 Phe entry 3]
Kd [1, 4]: 0.0026 µM

GTCCCCTTGGGGATACCACCGAGAGTCATAGTAGTTCACGGGTCTGCAGCTTACGCATGT [S1 Phe entry 6]
Kd [1, 4]: 0.0113 µM

GTCCCCTTGGGGATACCACCTTGGCGAGATCCCCTATACGTGAGCTTCCTTTTATCCTTT [S1 Trp-1]
Kd [1]: 0.0031 µM

GTCCCCTTGGGGATACCACCCTTAGGTCGGCCTTTGACCATTCGTGCAAAACTTAGCGAA [TNF Phe entry 6]
Kd (TNF-alpha; [2]): 0.041 µM

GTCCCCTTGGGGATACCACCCGTGCACGATCTAGCCAGTGCTCGCTTGAAATGGGCGCAG [S1 Standard-2]
Kd ([1]; SEQ 37 part DNA primer, selected region TNA 3'-2', natural bases): 0.034 µM

GTCCCCTTGGGGATACCACCACGATGGACTTGGGTAGCTAGTCAGGTTAGGCTGTTTGGA [S1 Phe entry 11]
Kd [1, 4]: 0.0221 µM

GTCCCCTTGGGGATACCACCAGAGCAAGTCATGATCGCGAGTTTAGCTTTTTCATTTCCC [TNF Phe entry 9]
Kd (TNF-alpha; [2]): 0.086 µM

GTCCCCTTGGGGATACCACCCGCGGCGTTGCGTAGCGCCAATCCTGCACAGAGGCGGGCG [TNF standard entry 3]
Kd (TNF-alpha; natural bases, R2 0.88): 0.141 µM

— US20250092406
